# Results from PMC7801428 (Nature Communications, 2021).
# B1: human-mouse chimeric antibody 3C1 (c3C1) (antibody, V domains shown)
# VH: EVQLQESGPSLVKPSQTLSLTCSVTGDSITNGYWNWIRKFPGNKLEYMGYISYSGSTYYSPSLKSRISITRDTSKNQHYLQLNSVTSEDTATYYCASDYHGSKYYFDYWGQGTTLTVSS
# VL: DIVMTQSHKFMSTSVGHRVSITCKASQDVGNDVAWYQQKPGQSPKLLIYWASTRHTGVPDRFTGSGSGTDFTLTISNVQSEDLADYFCQQYNRYPYTFGGGTKLEIK
# notes: also called chimeric MAb c3C1
# Target: SARS-CoV-2 RBD (residues V320 to G550, strain Wuhan-Hu-1), C-terminal His tag (SARS-CoV-2, UniProt P0DTC2)
# Test: BLI
# Details: both partners purified
binder,measurement,value
B1,Kd,< 1 pM
